# Reference: the Human Domainome abundance scans (Beltran et al. 2025)
# ± gives the uncertainty stated by the source.
# B1: Tumor protein p73, residues 487 to 549; numbered along this chain, O15350 (parent)
# chain: YHADPSLVSFLTGLGCPNCIEYFTSQGLQSIYHLQNLTIEDLGALKIPEQYRMTIWRGLQDLK
# Variants of: B1
# Test: abundance fitness (aPCA) (normalised: wild type 0, dead -1); higher = more abundant; growth selection in yeast, the domain comes from the species named
# Conditions: Homo sapiens
row,Variant,abundance fitness
1,YHADPSLVSFLTGLGCPNCIEYFTSWGLQSIYHLQNLTIEDLGALKIPEQYRMTIWRGLQDLK [Q26W],-0.286 ± 0.042
2,YHADPSLVSFLTGLGCPNCIEYFTSLGLQSIYHLQNLTIEDLGALKIPEQYRMTIWRGLQDLK [Q26L],-0.199 ± 0.04
3,YHADPSLVSFLTGLGCPNCIEYFTSYGLQSIYHLQNLTIEDLGALKIPEQYRMTIWRGLQDLK [Q26Y],-0.32 ± 0.098
4,YHADPSLVSFLTGLGCPNCIEYFTSRGLQSIYHLQNLTIEDLGALKIPEQYRMTIWRGLQDLK [Q26R],0.001 ± 0.034
5,YHADPSLVSFLTGLGCPNCIEYFTSSGLQSIYHLQNLTIEDLGALKIPEQYRMTIWRGLQDLK [Q26S],-0.004 ± 0.032
6,YHADPSLVSFLTGLGCPNCIEYFTSPGLQSIYHLQNLTIEDLGALKIPEQYRMTIWRGLQDLK [Q26P],-0.204 ± 0.052
7,YHADPSLVSFLTGLGCPNCIEYFTSNGLQSIYHLQNLTIEDLGALKIPEQYRMTIWRGLQDLK [Q26N],0.109 ± 0.072
8,YHADPSLVSFLTGLGCPNCIEYFTSMGLQSIYHLQNLTIEDLGALKIPEQYRMTIWRGLQDLK [Q26M],-0.207 ± 0.044
9,YHADPSLVSFLTGLGCPNCIEYFTSTGLQSIYHLQNLTIEDLGALKIPEQYRMTIWRGLQDLK [Q26T],-0.082 ± 0.06
10,YHADPSLVSFLTGLGCPNCIEYFTSQGFQSIYHLQNLTIEDLGALKIPEQYRMTIWRGLQDLK [L28F],0.175 ± 0.077
11,YHADPSLVSFLTGLGCPNCIEYFTSQGWQSIYHLQNLTIEDLGALKIPEQYRMTIWRGLQDLK [L28W],-0.16 ± 0.039
12,YHADPSLVSFLTGLGCPNCIEYFTSQGEQSIYHLQNLTIEDLGALKIPEQYRMTIWRGLQDLK [L28E],-0.177 ± 0.061
13,YHADPSLVSFLTGLGCPNCIEYFTSQGHQSIYHLQNLTIEDLGALKIPEQYRMTIWRGLQDLK [L28H],0.083 ± 0.13
14,YHADPSLVSFLTGLGCPNCIEYFTSQGNQSIYHLQNLTIEDLGALKIPEQYRMTIWRGLQDLK [L28N],-0.241 ± 0.072
15,YHADPSLVSFLTGLGCPNCIEYFTSQGCQSIYHLQNLTIEDLGALKIPEQYRMTIWRGLQDLK [L28C],0.021 ± 0.044
16,YHADPSLVSFLTGLGCPNCIEYFTSQGGQSIYHLQNLTIEDLGALKIPEQYRMTIWRGLQDLK [L28G],-0.289 ± 0.032
17,YHADPSLVSFLTGLGCPNCIEYFTSQGDQSIYHLQNLTIEDLGALKIPEQYRMTIWRGLQDLK [L28D],-0.261 ± 0.081
18,YHADPSLVSFLTGLGCPNCIEYFTSQGQQSIYHLQNLTIEDLGALKIPEQYRMTIWRGLQDLK [L28Q],-0.038 ± 0.042
19,YHADPSLVSFLTGLGCPNCIEYFTSQGTQSIYHLQNLTIEDLGALKIPEQYRMTIWRGLQDLK [L28T],-0.186 ± 0.046
20,YHADPSLVSFLTGLGCPNCIEYFTSQGRQSIYHLQNLTIEDLGALKIPEQYRMTIWRGLQDLK [L28R],-0.05 ± 0.027
21,YHADPSLVSFLTGLGCPNCIEYFTSQGSQSIYHLQNLTIEDLGALKIPEQYRMTIWRGLQDLK [L28S],-0.079 ± 0.035

row,Variant,abundance fitness
1,YHADPSLVSFLTGLGCPNCIEYFTSQGMQSIYHLQNLTIEDLGALKIPEQYRMTIWRGLQDLK [L28M],0.042 ± 0.051
2,YHADPSLVSFLTGLGCPNCIEYFTSQGPQSIYHLQNLTIEDLGALKIPEQYRMTIWRGLQDLK [L28P],-0.286 ± 0.069
3,YHADPSLVSFLTGLGCPNCIEYFTSQGIQSIYHLQNLTIEDLGALKIPEQYRMTIWRGLQDLK [L28I],-0.041 ± 0.065
4,YHADPSLVSFLTGLGCPNCIEYFTSQGKQSIYHLQNLTIEDLGALKIPEQYRMTIWRGLQDLK [L28K],0.005 ± 0.043
5,YHADPSLVSFLTGLGCPNCIEYFTSQGVQSIYHLQNLTIEDLGALKIPEQYRMTIWRGLQDLK [L28V],-0.008 ± 0.028
6,YHADPSLVSFLTGLGCPNCIEYFTSQGYQSIYHLQNLTIEDLGALKIPEQYRMTIWRGLQDLK [L28Y],-0.058 ± 0.051
7,YHADPSLVSFLTGLGCPNCIEYFTSQGLQSMYHLQNLTIEDLGALKIPEQYRMTIWRGLQDLK [I31M],0.012 ± 0.053
8,YHADPSLVSFLTGLGCPNCIEYFTSQGLQSDYHLQNLTIEDLGALKIPEQYRMTIWRGLQDLK [I31D],-0.269 ± 0.068
9,YHADPSLVSFLTGLGCPNCIEYFTSQGLQSCYHLQNLTIEDLGALKIPEQYRMTIWRGLQDLK [I31C],-0.011 ± 0.087
10,YHADPSLVSFLTGLGCPNCIEYFTSQGLQSNYHLQNLTIEDLGALKIPEQYRMTIWRGLQDLK [I31N],-0.086 ± 0.051
11,YHADPSLVSFLTGLGCPNCIEYFTSQGLQSFYHLQNLTIEDLGALKIPEQYRMTIWRGLQDLK [I31F],-0.294 ± 0.21
12,YHADPSLVSFLTGLGCPNCIEYFTSQGLQSLYHLQNLTIEDLGALKIPEQYRMTIWRGLQDLK [I31L],0.035 ± 0.037
13,YHADPSLVSFLTGLGCPNCIEYFTSQGLQSKYHLQNLTIEDLGALKIPEQYRMTIWRGLQDLK [I31K],-0.11 ± 0.051
14,YHADPSLVSFLTGLGCPNCIEYFTSQGLQSHYHLQNLTIEDLGALKIPEQYRMTIWRGLQDLK [I31H],-0.156 ± 0.06
15,YHADPSLVSFLTGLGCPNCIEYFTSQGLQSAYHLQNLTIEDLGALKIPEQYRMTIWRGLQDLK [I31A],0.004 ± 0.043
16,YHADPSLVSFLTGLGCPNCIEYFTSQGLQSGYHLQNLTIEDLGALKIPEQYRMTIWRGLQDLK [I31G],-0.199 ± 0.038
17,YHADPSLVSFLTGLGCPNCIEYFTSQGLQSEYHLQNLTIEDLGALKIPEQYRMTIWRGLQDLK [I31E],-0.129 ± 0.045
18,YHADPSLVSFLTGLGCPNCIEYFTSQFLQSIYHLQNLTIEDLGALKIPEQYRMTIWRGLQDLK [G27F],-1 ± 0.22
19,YHADPSLVSFLTGLGCPNCIEYFTSQALQSIYHLQNLTIEDLGALKIPEQYRMTIWRGLQDLK [G27A],-0.304 ± 0.075
20,YHADPSLVSFLTGLGCPNCIEYFTSQNLQSIYHLQNLTIEDLGALKIPEQYRMTIWRGLQDLK [G27N],-0.055 ± 0.22
21,YHADPSLVSFLTGLGCPNCIEYFTSQMLQSIYHLQNLTIEDLGALKIPEQYRMTIWRGLQDLK [G27M],-0.716 ± 0.069
